Data: article doi:10.1101/391136
pKd: −log10 of the molar value.

Assays:
[1] = molecular target: S100A1; test: ITC
[2] = molecular target: S100A1; test: other fluorescence titration

## S100A4 (from UniProt P26447 4-101) (natural protein)
[1]
  pKd: 5.20
  stoichiometry N: 1
[2]
  pKd: 5.00
